# According to publication PMC5139991, “SEC-SANS: size exclusion chromatography combined in situ with small-angle neutron scattering1” (Journal of Applied Crystallography, 2016):
# Molecular target: the molecule itself
# Assay: AUC; ultracentrifugation of Sir2a; no details given (to be detailed in a later publication)
protein,measurement,value
"Plasmodium falciparum Sir2a (enzyme, UniProt Q8IE47 1-273, looked up, Sir2a of Plasmodium falciparum, codon-optimized gene PF3D7_1328800 cloned into pET-28a; printed size 34 kDa; Protonated protein; The His tag is inferred from pET-28a and the TALON purification; removal of the tag is not mentioned; source: E. coli BL21 DE3, purified (HiTrap TALON, gel filtration)) MGNLMISFLKKDTQSITLEELAKIIKKCKHVVALTGSGTSAESNIPSFRGSSNSIWSKYDPRIYGTIWGFWKYPEKIWEVIRDISSDYEIEINNGHVALSTLESLGYLKSVVTQNVDGLHEASGNTKVISLHGNVFEAVCCTCNKIVKLNKIMLQKTSHFMHQLPPECPCGGIFKPNIILFGEVVSSDLLKEAEEEIAKCDLLLVIGTSSTVSTATNLCHFACKKKKKIVEINISKTYITNKMSDYHVCAKFSELTKVANILKGSSEKNKKIM",stoichiometry N,3
